Changes are numbered by the printed parent chain. Where no end group is shown, it is not given here. [ ]: non-standard residue; d: D form. Aib = CC(C)(N)C(=O)O
B1: [Aib2,Gly16,Glu21,Lys29,Aib30,Leu31,Glu32,Phe33,Leu34,Glu35,Leu36,Leu37]-Exendin-4-(1-37)-peptide amide (peptide)
peptide: H[Aib]EGTFTSDLSKQMEGEAVREFIEWLKNK[Aib]LEFLELL-NH2
modifications: N-terminus assumed
SMILES: CC[C@H](C)[C@H](NC(=O)[C@H](Cc1ccccc1)NC(=O)[C@H](CCC(=O)O)NC(=O)[C@H](CCCNC(=N)N)NC(=O)[C@@H](NC(=O)[C@H](C)NC(=O)[C@H](CCC(=O)O)NC(=O)CNC(=O)[C@H](CCC(=O)O)NC(=O)[C@H](CCSC)NC(=O)[C@H](CCC(N)=O)NC(=O)[C@H](CCCCN)NC(=O)[C@H](CO)NC(=O)[C@H](CC(C)C)NC(=O)[C@H](CC(=O)O)NC(=O)[C@H](CO)NC(=O)[C@@H](NC(=O)[C@H](Cc1ccccc1)NC(=O)[C@@H](NC(=O)CNC(=O)[C@H](CCC(=O)O)NC(=O)C(C)(C)NC(=O)[C@@H](N)Cc1c[nH]cn1)[C@@H](C)O)[C@@H](C)O)C(C)C)C(=O)N[C@@H](CCC(=O)O)C(=O)N[C@@H](Cc1c[nH]c2ccccc12)C(=O)N[C@@H](CC(C)C)C(=O)N[C@@H](CCCCN)C(=O)N[C@@H](CC(N)=O)C(=O)N[C@@H](CCCCN)C(=O)NC(C)(C)C(=O)N[C@@H](CC(C)C)C(=O)N[C@@H](CCC(=O)O)C(=O)N[C@@H](Cc1ccccc1)C(=O)N[C@@H](CC(C)C)C(=O)N[C@@H](CCC(=O)O)C(=O)N[C@@H](CC(C)C)C(=O)N[C@@H](CC(C)C)C(N)=O
B2: [Aib8,Lys35,Aib36,Lys37]-GLP-1-(7-37)-peptidyl-Glu-Phe-Leu amide (peptide)
peptide: HXEGTFTSDVSSYLEGQAAKEFIAWLVKKXKEFL
modifications: Aib at 8, 36; C-terminal amide
B3: [Aib8,Lys35,Aib36]-GLP-1-(7-37)-peptidyl-Glu-Phe-Leu amide (peptide)
peptide: B2 peptide with K31G
modifications: Aib at 8, 36; C-terminal amide
B4: [Aib8,Glu23,Lys24,Val25,Glu30,Glu34,Lys35,Aib36,Lys37]-GLP-1-(7-37)-peptidyl-Glu-Phe-Leu amide (peptide)
peptide: H[Aib]EGTFTSDVSSYLEGEKVKEFIEWLVEK[Aib]KEFL-NH2
modifications: N-terminus assumed
SMILES: CC[C@H](C)[C@H](NC(=O)[C@H](Cc1ccccc1)NC(=O)[C@H](CCC(=O)O)NC(=O)[C@H](CCCCN)NC(=O)[C@@H](NC(=O)[C@H](CCCCN)NC(=O)[C@H](CCC(=O)O)NC(=O)CNC(=O)[C@H](CCC(=O)O)NC(=O)[C@H](CC(C)C)NC(=O)[C@H](Cc1ccc(O)cc1)NC(=O)[C@H](CO)NC(=O)[C@H](CO)NC(=O)[C@@H](NC(=O)[C@H](CC(=O)O)NC(=O)[C@H](CO)NC(=O)[C@@H](NC(=O)[C@H](Cc1ccccc1)NC(=O)[C@@H](NC(=O)CNC(=O)[C@H](CCC(=O)O)NC(=O)C(C)(C)NC(=O)[C@@H](N)Cc1c[nH]cn1)[C@@H](C)O)[C@@H](C)O)C(C)C)C(C)C)C(=O)N[C@@H](CCC(=O)O)C(=O)N[C@@H](Cc1c[nH]c2ccccc12)C(=O)N[C@@H](CC(C)C)C(=O)N[C@H](C(=O)N[C@@H](CCC(=O)O)C(=O)N[C@@H](CCCCN)C(=O)NC(C)(C)C(=O)N[C@@H](CCCCN)C(=O)N[C@@H](CCC(=O)O)C(=O)N[C@@H](Cc1ccccc1)C(=O)N[C@@H](CC(C)C)C(N)=O)C(C)C
B5: [Aib8,Glu23,Val25,Trp30,Glu34,Lys35,Aib36,Lys37]-GLP-1-(7-37)-peptidyl-Glu-Phe-Leu amide (peptide)
peptide: H[Aib]EGTFTSDVSSYLEGEAVKEFIWWLVEK[Aib]KEFL-NH2
modifications: N-terminus assumed
SMILES: CC[C@H](C)[C@H](NC(=O)[C@H](Cc1ccccc1)NC(=O)[C@H](CCC(=O)O)NC(=O)[C@H](CCCCN)NC(=O)[C@@H](NC(=O)[C@H](C)NC(=O)[C@H](CCC(=O)O)NC(=O)CNC(=O)[C@H](CCC(=O)O)NC(=O)[C@H](CC(C)C)NC(=O)[C@H](Cc1ccc(O)cc1)NC(=O)[C@H](CO)NC(=O)[C@H](CO)NC(=O)[C@@H](NC(=O)[C@H](CC(=O)O)NC(=O)[C@H](CO)NC(=O)[C@@H](NC(=O)[C@H](Cc1ccccc1)NC(=O)[C@@H](NC(=O)CNC(=O)[C@H](CCC(=O)O)NC(=O)C(C)(C)NC(=O)[C@@H](N)Cc1c[nH]cn1)[C@@H](C)O)[C@@H](C)O)C(C)C)C(C)C)C(=O)N[C@@H](Cc1c[nH]c2ccccc12)C(=O)N[C@@H](Cc1c[nH]c2ccccc12)C(=O)N[C@@H](CC(C)C)C(=O)N[C@H](C(=O)N[C@@H](CCC(=O)O)C(=O)N[C@@H](CCCCN)C(=O)NC(C)(C)C(=O)N[C@@H](CCCCN)C(=O)N[C@@H](CCC(=O)O)C(=O)N[C@@H](Cc1ccccc1)C(=O)N[C@@H](CC(C)C)C(N)=O)C(C)C
B6: [Aib8,Glu23,Val25,Lys27,Glu34,Lys35,Aib36,Lys37]-GLP-1-(7-37)-peptidyl-Glu-Phe-Leu amide (peptide)
peptide: H[Aib]EGTFTSDVSSYLEGEAVKKFIAWLVEK[Aib]KEFL-NH2
modifications: N-terminus assumed
SMILES: CC[C@H](C)[C@H](NC(=O)[C@H](Cc1ccccc1)NC(=O)[C@H](CCCCN)NC(=O)[C@H](CCCCN)NC(=O)[C@@H](NC(=O)[C@H](C)NC(=O)[C@H](CCC(=O)O)NC(=O)CNC(=O)[C@H](CCC(=O)O)NC(=O)[C@H](CC(C)C)NC(=O)[C@H](Cc1ccc(O)cc1)NC(=O)[C@H](CO)NC(=O)[C@H](CO)NC(=O)[C@@H](NC(=O)[C@H](CC(=O)O)NC(=O)[C@H](CO)NC(=O)[C@@H](NC(=O)[C@H](Cc1ccccc1)NC(=O)[C@@H](NC(=O)CNC(=O)[C@H](CCC(=O)O)NC(=O)C(C)(C)NC(=O)[C@@H](N)Cc1c[nH]cn1)[C@@H](C)O)[C@@H](C)O)C(C)C)C(C)C)C(=O)N[C@@H](C)C(=O)N[C@@H](Cc1c[nH]c2ccccc12)C(=O)N[C@@H](CC(C)C)C(=O)N[C@H](C(=O)N[C@@H](CCC(=O)O)C(=O)N[C@@H](CCCCN)C(=O)NC(C)(C)C(=O)N[C@@H](CCCCN)C(=O)N[C@@H](CCC(=O)O)C(=O)N[C@@H](Cc1ccccc1)C(=O)N[C@@H](CC(C)C)C(N)=O)C(C)C
B7: [Aib8,Lys23,Arg24,Arg26,Glu34,Lys35,Aib36,Lys37]-GLP-1-(7-37)-peptidyl-Glu-Phe-Leu amide (peptide)
peptide: H[Aib]EGTFTSDVSSYLEGKRAREFIAWLVEK[Aib]KEFL-NH2
modifications: N-terminus assumed
SMILES: CC[C@H](C)[C@H](NC(=O)[C@H](Cc1ccccc1)NC(=O)[C@H](CCC(=O)O)NC(=O)[C@H](CCCNC(=N)N)NC(=O)[C@H](C)NC(=O)[C@H](CCCNC(=N)N)NC(=O)[C@H](CCCCN)NC(=O)CNC(=O)[C@H](CCC(=O)O)NC(=O)[C@H](CC(C)C)NC(=O)[C@H](Cc1ccc(O)cc1)NC(=O)[C@H](CO)NC(=O)[C@H](CO)NC(=O)[C@@H](NC(=O)[C@H](CC(=O)O)NC(=O)[C@H](CO)NC(=O)[C@@H](NC(=O)[C@H](Cc1ccccc1)NC(=O)[C@@H](NC(=O)CNC(=O)[C@H](CCC(=O)O)NC(=O)C(C)(C)NC(=O)[C@@H](N)Cc1c[nH]cn1)[C@@H](C)O)[C@@H](C)O)C(C)C)C(=O)N[C@@H](C)C(=O)N[C@@H](Cc1c[nH]c2ccccc12)C(=O)N[C@@H](CC(C)C)C(=O)N[C@H](C(=O)N[C@@H](CCC(=O)O)C(=O)N[C@@H](CCCCN)C(=O)NC(C)(C)C(=O)N[C@@H](CCCCN)C(=O)N[C@@H](CCC(=O)O)C(=O)N[C@@H](Cc1ccccc1)C(=O)N[C@@H](CC(C)C)C(N)=O)C(C)C
B8: [Aib8,Glu23,Arg24,Val25,Glu34,Lys35,Aib36,Lys37]-GLP-1-(7-37)-peptidyl-Glu-Phe-Leu amide (peptide)
peptide: H[Aib]EGTFTSDVSSYLEGERVKEFIAWLVEK[Aib]KEFL-NH2
modifications: N-terminus assumed
SMILES: CC[C@H](C)[C@H](NC(=O)[C@H](Cc1ccccc1)NC(=O)[C@H](CCC(=O)O)NC(=O)[C@H](CCCCN)NC(=O)[C@@H](NC(=O)[C@H](CCCNC(=N)N)NC(=O)[C@H](CCC(=O)O)NC(=O)CNC(=O)[C@H](CCC(=O)O)NC(=O)[C@H](CC(C)C)NC(=O)[C@H](Cc1ccc(O)cc1)NC(=O)[C@H](CO)NC(=O)[C@H](CO)NC(=O)[C@@H](NC(=O)[C@H](CC(=O)O)NC(=O)[C@H](CO)NC(=O)[C@@H](NC(=O)[C@H](Cc1ccccc1)NC(=O)[C@@H](NC(=O)CNC(=O)[C@H](CCC(=O)O)NC(=O)C(C)(C)NC(=O)[C@@H](N)Cc1c[nH]cn1)[C@@H](C)O)[C@@H](C)O)C(C)C)C(C)C)C(=O)N[C@@H](C)C(=O)N[C@@H](Cc1c[nH]c2ccccc12)C(=O)N[C@@H](CC(C)C)C(=O)N[C@H](C(=O)N[C@@H](CCC(=O)O)C(=O)N[C@@H](CCCCN)C(=O)NC(C)(C)C(=O)N[C@@H](CCCCN)C(=O)N[C@@H](CCC(=O)O)C(=O)N[C@@H](Cc1ccccc1)C(=O)N[C@@H](CC(C)C)C(N)=O)C(C)C
B9: [Aib8,Glu23,Aib24,Val25,Aib30,Glu34,Lys35,Aib36,Lys37]-GLP-1-(7-37)-peptidyl-Glu-Phe-Leu amide (peptide)
peptide: H[Aib]EGTFTSDVSSYLEGE[Aib]VKEFI[Aib]WLVEK[Aib]KEFL-NH2
modifications: N-terminus assumed
SMILES: CC[C@H](C)[C@H](NC(=O)[C@H](Cc1ccccc1)NC(=O)[C@H](CCC(=O)O)NC(=O)[C@H](CCCCN)NC(=O)[C@@H](NC(=O)C(C)(C)NC(=O)[C@H](CCC(=O)O)NC(=O)CNC(=O)[C@H](CCC(=O)O)NC(=O)[C@H](CC(C)C)NC(=O)[C@H](Cc1ccc(O)cc1)NC(=O)[C@H](CO)NC(=O)[C@H](CO)NC(=O)[C@@H](NC(=O)[C@H](CC(=O)O)NC(=O)[C@H](CO)NC(=O)[C@@H](NC(=O)[C@H](Cc1ccccc1)NC(=O)[C@@H](NC(=O)CNC(=O)[C@H](CCC(=O)O)NC(=O)C(C)(C)NC(=O)[C@@H](N)Cc1c[nH]cn1)[C@@H](C)O)[C@@H](C)O)C(C)C)C(C)C)C(=O)NC(C)(C)C(=O)N[C@@H](Cc1c[nH]c2ccccc12)C(=O)N[C@@H](CC(C)C)C(=O)N[C@H](C(=O)N[C@@H](CCC(=O)O)C(=O)N[C@@H](CCCCN)C(=O)NC(C)(C)C(=O)N[C@@H](CCCCN)C(=O)N[C@@H](CCC(=O)O)C(=O)N[C@@H](Cc1ccccc1)C(=O)N[C@@H](CC(C)C)C(N)=O)C(C)C

molecular target: human GLP-1 receptor (human, UniProt P43220); test: cell-based or functional assay

Row | Binder | CRE luciferase EC50, 0% HSA [nM] | CRE luciferase EC50, 1% HSA [nM]
1 | B1 | 0.506 | 0.26
2 | B2 | 0.256 | 0.084
3 | B3 | 0.045 | 0.015
4 | B4 | 0.716 | 0.164
5 | B5 | 0.157 | 0.054
6 | B6 | 0.325 | 0.097
7 | B7 | 0.383 | 0.138
8 | B8 | 1.08 | 0.273
9 | B9 | 0.396 | 0.193
